Reference: US11703510B2, “Methods and products for in vivo enzyme profiling” (Massachusetts Institute of Technology, priority 2009, dated 2023)
Square brackets hold non-standard residues; d marks the D form. Ends that are not written are not given here. fluorescein = fluorescein label at the N-terminus

Experiment: Optimization of peptide reporters for LC/MS detection
Settings: compared with other peptides of the same proteolytic-product group with longer or less hydrophilic caps; FIG. 8B
From the text: A series of peptides (A1-A14) of different sequence were investigated to determine optimal sequence length and charge density that would enable facile detection via LC/MS. Three representative proteolytic products, sequences GGVVVLS (SEQ ID NO: 19), GGPVG (SEQ ID NO: 13), and GGdFPipR (SEQ ID NO: 17) were selected and appended with peptide caps of differing length and charge density (FIG. 8A). The sequences were then detected via LC/MS. […] A hydrophilic molecule is a molecule that can transiently hydrogen-bond with water and is, thus, soluble in water and, in some embodiments, in other polar solvents. Hydrophilicity of peptides can be modulated according to methods well known in the art. In some embodiments, removal of the fluorescein tag will increase the hydrophilicity of the peptides reported in this disclosure. In some embodiments, modification of the sequences to contain positively charged residues (Histidine, Lysine, and Arginine) and/or negatively charged residues (glutamic acid and aspartic acid) will increase the hydrophilicity. […] Of the tested cap sequences Fl-dR-dS-dR (SEQ ID NO: 20) and Fl-dR-G-dS-dR (SEQ ID NO: 21) were determined to be advantageous. Accordingly, for non-fluorescent detection, the cap sequences dR-dS-dR (SEQ ID NO: 35) and dR-G-dS-dR (SEQ ID NO: 36) were determined to be advantageous. […]

Row | Substance | detection via LC/MS (normalized relative intensities of the peptide reporters)
1 | Fl-dR-G-dS-dR (fluorescein-[dR]G[dS][dR]) | advantageous
2 | Fl-dR-dS-dR (fluorescein-[dR]-[dS]-[dR]) | advantageous
